Laboratory results: PMC6297234, “aPKC controls endothelial growth by modulating c-Myc via FoxO1 DNA-binding ability”

Biological target: GST-FoxO1 DBD (Homo sapiens, UniProt Q12778 151-266)
Test: EMSA; 1 µM protein, 1 nM DNA, 1 ng/mL poly dI-dC; 20 mM Tris pH 8.0, 50 mM KCl, 5% glycerol, 2 mM DTT, 0.2 mM EDTA, 2 mM MgCl2, 0.1 mg/mL BSA, 1 ng/mL poly dI-dC; RT 30 min; 6% gel in 0.5X TBE at 4 °C
Settings: protein: recombinant; tags: GST (pDEST15, N-terminal); blunt

Sequence of GST-FoxO1 DBD (Q12778 151-266): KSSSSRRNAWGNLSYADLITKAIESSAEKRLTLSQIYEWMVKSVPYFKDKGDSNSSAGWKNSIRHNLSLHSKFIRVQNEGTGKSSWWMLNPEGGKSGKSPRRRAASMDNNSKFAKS

B1: FoxO DBE duplex (dsDNA)
DNA 1: CAAAATGTAAACAAGA
DNA 2: TCTTGTTTACATTTTG
  binding result: binds
